Test results from article PMC6486544 (Nucleic Acids Research, 2019).

Key:
GB1-U1A (1-282) = GB1-U1A (1-282) (UniProt P09012 1-282); assay: NMR titration
U1A RRM1 (1-126) = U1A RRM1 (1-126) (UniProt P09012 1-126); assay: NMR titration
Sequence of U1A RRM1 (1-126) (P09012 1-126): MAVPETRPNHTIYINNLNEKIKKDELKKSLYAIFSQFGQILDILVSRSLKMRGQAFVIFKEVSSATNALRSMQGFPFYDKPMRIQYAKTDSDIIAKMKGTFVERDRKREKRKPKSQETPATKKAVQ

Sequence of GB1-U1A (1-282) (P09012 whole entry): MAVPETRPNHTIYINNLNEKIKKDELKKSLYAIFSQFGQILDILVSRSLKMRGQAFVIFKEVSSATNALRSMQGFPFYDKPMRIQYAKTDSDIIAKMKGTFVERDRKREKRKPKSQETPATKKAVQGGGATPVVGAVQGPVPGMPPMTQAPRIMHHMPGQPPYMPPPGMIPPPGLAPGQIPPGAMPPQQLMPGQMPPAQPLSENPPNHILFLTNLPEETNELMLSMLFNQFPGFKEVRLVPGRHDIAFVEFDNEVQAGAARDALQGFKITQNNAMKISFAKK

B1: GB1-hSAM68 (C2) (domain or fragment, human, UniProt Q07666 365-443, looked up)
chain: TYEEYGYDDTYAEQSYEGYEGYYSQSQGDSEYYDYGHGEVQDSYEAYGQDDWNGTRPSLKAPPARPVKGAYREHPYGRY
B1: binds (GB1-U1A (1-282)); binds (U1A RRM1 (1-126)).
